Experimental data taken from US20230203204A1 (published 2023).

Target: T1, recombinant human RANKL-murine Fc fusion protein (Sino Biological Inc.) (human, UniProt O14788 136-317, limits assumed)
T1 construct: Bought; not shown: murine Fc
T1 sequence (looked up): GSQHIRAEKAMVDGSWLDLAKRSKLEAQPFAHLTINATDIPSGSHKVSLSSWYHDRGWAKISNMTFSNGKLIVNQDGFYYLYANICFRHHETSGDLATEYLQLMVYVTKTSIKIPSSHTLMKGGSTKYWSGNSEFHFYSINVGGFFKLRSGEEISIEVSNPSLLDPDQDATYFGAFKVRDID
Experiment: ELISA, human RANKL-murine Fc coated at 1 ug/mL, fusion protein titrated, anti-human IgG Fc-AP detection

B1: OPG-Fc (Sino Biological Inc.) (Fc fusion, UniProt O00300 22-401, looked up)
chain: ETFPPKYLHYDEETSHQLLCDKCPPGTYLKQHCTAKWKTVCAPCPDHYYTDSWHTSDECLYCSPVCKELQYVKQECNRTHNRVCECKEGRYLEIEFCLKHRSCPPGFGVVQAGTPERNTVCKRCPDGFFSNETSSKAPCRKHTNCSVFGLLLTQKGNATHDNICSGNSESTQKCGIDVTLCEEAFFRFAVPTKFTPNWLSVLVDNLPGTKVNAESVERIKRQHSSQEQTFQLLKLWKHQNKDQDIVKKIIQDIDLCENSVQRHIGHANLTFEQLRSLMESLPGKKVGAEDIEKTIKACKPSDQILKLLSLWRIKNGDQDTLKGLMHALKHSKTYHFPKTVTQSLKKTIRFLHSFTMYKLYQKLFLEMIGNQVQSVKISCL
notes: not shown: Fc part of the bought product
- EC50: 0.04 µg/mL
